{"source": "paper PMC8395645", "target": "FGFR2b Ig-like domains 2-3 (UniProt P21802-3 140-369)", "test": "ITC", "data": [{"binder": "TGTTGGGAGGGGATGGGACGTATAGGTAAGGGCGGGGGTGGACACG (structured_DNA)", "note": "[Apt_46]", "values": [{"measurement": "Kd", "value": "46.3 ± 16.2", "unit": "nM"}]}]}
